Assay results from the supplement of paper PMC10567573.

B1: SOAT1 (parent)
chain: PSNGRIDIKQLIAKKIKLTAEAEE

Variants of: B1
Test: protein stability index of a GFP-peptide fusion (GPS, HEK-293T) (PSI 1-6); higher = more stable
Conditions: c terminus: a fixed tail appended
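Further: lentivirally expressed fusions sorted by FACS into six bins by GFP to DsRed ratio, PSI derived from sequencing read proportions per bin multiplied by bin number.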

Variant | protein stability index
PSNGRIDKKQLIAKKIKLTAEAEE [I8K] | 3.64
PSNGRIDCKQLIAKKIKLTAEAEE [I8C] | 4.06
PSNGRIDTKQLIAKKIKLTAEAEE [I8T] | 4.48
PSNGRIDMKQLIAKKIKLTAEAEE [I8M] | 3.44
PSNGRIDVKQLIAKKIKLTAEAEE [I8V] | 3.88
PSNGRIDSKQLIAKKIKLTAEAEE [I8S] | 3.99
PSNGRIDNKQLIAKKIKLTAEAEE [I8N] | 4.01
PSNGRIDLKQLIAKKIKLTAEAEE [I8L] | 3.62
PSNGRIDQKQLIAKKIKLTAEAEE [I8Q] | 3.8
PSNGRIDAKQLIAKKIKLTAEAEE [I8A] | 3.42
PSNGRIDPKQLIAKKIKLTAEAEE [I8P] | 3.38
PSNGRIDEKQLIAKKIKLTAEAEE [I8E] | 4.62
PSNGRIDDKQLIAKKIKLTAEAEE [I8D] | 4.48
PSNGRIDWKQLIAKKIKLTAEAEE [I8W] | 3.08
PSNGRIDIKQNIAKKIKLTAEAEE [L11N] | 3.6
PSNGRIDIKQCIAKKIKLTAEAEE [L11C] | 3.5
PSNGRIDIKQTIAKKIKLTAEAEE [L11T] | 4.3
PSNGRIDIKQEIAKKIKLTAEAEE [L11E] | 4.15
PSNGRIDIKQSIAKKIKLTAEAEE [L11S] | 3.75
PSNGRIDIKQYIAKKIKLTAEAEE [L11Y] | 3.42
PSNGRIDIKQWIAKKIKLTAEAEE [L11W] | 3.67
PSNGRIDIKQKIAKKIKLTAEAEE [L11K] | 3.68
PSNGRIDIKQGIAKKIKLTAEAEE [L11G] | 3.75
PSNGRIDIKQVIAKKIKLTAEAEE [L11V] | 3.57

Variant | protein stability index
PSNGRIDIKQDIAKKIKLTAEAEE [L11D] | 4.04
PSNGRIDIKQRIAKKIKLTAEAEE [L11R] | 3.93
PSNGRIDIKQIIAKKIKLTAEAEE [L11I] | 3.17
PSNGRIDIKQAIAKKIKLTAEAEE [L11A] | 3.83
PSNGRIDIKQPIAKKIKLTAEAEE [L11P] | 3.66
PSNGRIDIKQFIAKKIKLTAEAEE [L11F] | 3.38
PSNGRIDIKQHIAKKIKLTAEAEE [L11H] | 3.97
PSNGRIDIKQQIAKKIKLTAEAEE [L11Q] | 3.58
PSNGRIDIKQMIAKKIKLTAEAEE [L11M] | 3.22
PSNGRIYIKQLIAKKIKLTAEAEE [D7Y] | 2.35
PSNGRITIKQLIAKKIKLTAEAEE [D7T] | 2.97
PSNGRIWIKQLIAKKIKLTAEAEE [D7W] | 3.46
PSNGRIVIKQLIAKKIKLTAEAEE [D7V] | 2.41
PSNGRIDIKQLCAKKIKLTAEAEE [I12C] | 3.83
PSNGRIDIKQLLAKKIKLTAEAEE [I12L] | 3.17
PSNGRIDIKQLMAKKIKLTAEAEE [I12M] | 3.7
PSNGRIDIKQLSAKKIKLTAEAEE [I12S] | 3.82
PSNGRIDIKQLGAKKIKLTAEAEE [I12G] | 3.9
PSNGRIDIKQLKAKKIKLTAEAEE [I12K] | 3.83
PSNGRIDIKQLHAKKIKLTAEAEE [I12H] | 3.89
PSNGRIDIKQLNAKKIKLTAEAEE [I12N] | 3.99
PSNGRIDIKQLAAKKIKLTAEAEE [I12A] | 3.53
PSNGRIDIKQLYAKKIKLTAEAEE [I12Y] | 3.19
PSNGRIDIKQLQAKKIKLTAEAEE [I12Q] | 4.17

Variant | protein stability index
PSNGRIDIKQLRAKKIKLTAEAEE [I12R] | 3.85
PSNGRIDIKQLTAKKIKLTAEAEE [I12T] | 3.89
PSNGRIDIKQLVAKKIKLTAEAEE [I12V] | 3.48
PSNGRIDIKQLDAKKIKLTAEAEE [I12D] | 4.28
PSNGRIDIKQLWAKKIKLTAEAEE [I12W] | 2.78
PSNGRIDIKQLEAKKIKLTAEAEE [I12E] | 4.35
PSNGRIDIKQLFAKKIKLTAEAEE [I12F] | 3.5
PSNGRIDIKQLPAKKIKLTAEAEE [I12P] | 3.7
PSNGRIDIKYLIAKKIKLTAEAEE [Q10Y] | 2.43
PSNGRIDIKPLIAKKIKLTAEAEE [Q10P] | 3.88
PSNGRIDIKELIAKKIKLTAEAEE [Q10E] | 3.73
PSNGRIDIKFLIAKKIKLTAEAEE [Q10F] | 2.65
PSNGRIDIKGLIAKKIKLTAEAEE [Q10G] | 3.59
PSNGRIDIKMLIAKKIKLTAEAEE [Q10M] | 2.67
PSNGRIDIKLLIAKKIKLTAEAEE [Q10L] | 3.18
PSNGRIDIKHLIAKKIKLTAEAEE [Q10H] | 2.57
PSNGRIDIKWLIAKKIKLTAEAEE [Q10W] | 2.35
PSNGRIDIKKLIAKKIKLTAEAEE [Q10K] | 3.3
PSNGRIDIKILIAKKIKLTAEAEE [Q10I] | 2.18
PSNGRIDIKVLIAKKIKLTAEAEE [Q10V] | 2.33
PSNGRIDIKDLIAKKIKLTAEAEE [Q10D] | 3.58
PSNGRIDIKALIAKKIKLTAEAEE [Q10A] | 3.35
PSNGRIDIKTLIAKKIKLTAEAEE [Q10T] | 3.45
PSNGRIDIKCLIAKKIKLTAEAEE [Q10C] | 3.19

Variant | protein stability index
PSNGRIDIKSLIAKKIKLTAEAEE [Q10S] | 3.1
PSNGRIDIKNLIAKKIKLTAEAEE [Q10N] | 3.21
PSNGRIDIKRLIAKKIKLTAEAEE [Q10R] | 2.7
PSNGRIDIKQLIAKQIKLTAEAEE [K15Q] | 3.87
PSNGRIDIKQLIAKDIKLTAEAEE [K15D] | 4.25
PSNGRIDIKQLIAKPIKLTAEAEE [K15P] | 4.22
PSNGRIDIKQLIAKAIKLTAEAEE [K15A] | 3.19
PSNGRIDIKQLIAKSIKLTAEAEE [K15S] | 3.59
PSNGRIDIKQLIAKLIKLTAEAEE [K15L] | 1.87
PSNGRIDIKQLIAKRIKLTAEAEE [K15R] | 2.88
PSNGRIDIKQLIAKVIKLTAEAEE [K15V] | 2.42
PSNGRIDIKQLIAKIIKLTAEAEE [K15I] | 2.48
PSNGRIDIKQLIAKYIKLTAEAEE [K15Y] | 2.69
PSNGRIDIKQLIAKFIKLTAEAEE [K15F] | 2.47
PSNGRIDIKQLIAKTIKLTAEAEE [K15T] | 3.13
PSNGRIDIKQLIAKMIKLTAEAEE [K15M] | 3.11
PSNGRIDIKQLIAKCIKLTAEAEE [K15C] | 2.5
PSNGRIDIKQLIAKHIKLTAEAEE [K15H] | 3.17
PSNGRIDIKQLIAKEIKLTAEAEE [K15E] | 4.52
PSNGRIDIKQLIAKNIKLTAEAEE [K15N] | 4.05
PSNGRIDIKQLIAKWIKLTAEAEE [K15W] | 2.63
PSNGRIDIKQLIAKGIKLTAEAEE [K15G] | 4.05
